Tested on: NC(=O)c1ccc[n+]([C@@H]2O[C@H](COP(=O)([O-])OP(=O)(O)OC[C@H]3O[C@@H](n4cnc5c(N)ncnc54)[C@H](O)[C@@H]3O)[C@@H](O)[C@H]2O)c1
Test: purified protein
Assay type: biochemical, Homo sapiens

CD38 (Homo sapiens)
Km: 17 ± 6 µM

— paper PMC2752052
